Patent publication US20140065111A1 (published 2014)

Biological target: T1, human gp100 peptide on H-2Db (mouse)
T1 peptide: KVPRNQDWL
Experiment: multimer staining
Procedure: Monomers of H2D^b mouse MHC class I molecules loaded with the human gp100 peptide KVPRNQDWL were ordered from the NIH tetramer facility. Monomers were conjugated to APC-Streptavidin (eBiosience) by incubation on ice. Cells were stained with tetramers for 1H in concentrations of 0.178 μg tetramers for 1 million cells in total volume of 50 μl of PBS supplemented with 0.5% BSA and 0.1% of Na-Azide.
After testing the expression and presence of the CD3-TCR complex on the cell surface it is essential to determine the capability of the TCR to bind the MHC-class I molecule presenting the gp100 peptide. In order to test binding capability of the TCR a tetramer staining assay was performed. The tetramer staining assay is designed for testing TCR-MHC binding and was previously described (Ogg and McMichael, 1998). Briefly, the tetramer is a complex of four monomers. Each monomer formed from a mouse MHC-class I molecule, H-2D^b, presenting the human gp100 peptide KVPRNQDWL. The H-2D^b molecule is conjugated to a biotin molecule. The tetramers are assembled by linking four biotin conjugated monomers to one molecule of APC-conjugated Streptavidin. The 293TREx-CD3-Pmel-TCR cells were stained with the tetramers and analyzed by FACS.

binding result: recognises
B1: Pmel-TCR (TCR, V domains shown)
Valpha: QQKVQQSPESLTVSEGAMASLNCTFSDRSSDNFRWYRQHSGKGLEVLVSIFSDGEKEEGSFTAHLNRASLHVFLHIREPQPSDSALYLCAVNTGNYKYVFGAGTRLKVIA
Vbeta: EAGVTQSPRYAVLQEGQAVSFWCDPISGHDTLYWYQQPRDQGPQLLVYFRDEAVIDNSQLPSDRFSAVRPKGTNSTLKIQSAKQGDTATYLCASSFHRDYNSPLYFAAGTRLTVT
